From patent US7378234B2, “Method for isolating hepatitis C virus peptides” (Intercell AG, priority 2002, dated 2008) come the findings set out here.

This experiment concerns HLA-B*0702 transgenic mice. Nature of the experiment: Vaccination of HLA-B*0702 transgenic mice (peptide + IC31), IFN-gamma ELISpot with spleen cells and CD8+ fraction. The format is in vivo, mouse. The conditions noted are these: for specific INF-γ producing T cells / HLA-B*0702 epitope in HLA-B*0702 transgenic mice (in words): peptide + IC31, whole spleen cells and CD8+ fraction. The procedure:
Mouse splenocyte ELIspot assay for single cell IFN-gamma release ELISpot plates (MAHA S4510, Millipore, Germany) were rinsed with PBS (200 μl/well), coated with anti-mouse IFN-gamma mAb (clone R46A2; 100 μl/well of 5 μg/ml in 0.1 M NaHCO3, pH 9.2-9.5) and incubated overnight at 4° C. Plates were washed four times with PBS/0.1% Tween 20 and incubated with PBS/1% BSA (200 μl/well) at room temperature for 2 h to block nonspecific binding. Spleen cells from vaccinated mice were prepared and plated at 1×10^6-3×10^5 cells/well and incubated overnight at 37° C./5% CO2 either in the presence of the immunizing antigen (peptide), control peptides or with medium alone. Subsequently, plates were washed four times and incubated with biotinylated anti-mouse IFN-gamma mAb (clone AN18.17.24, 100 μl/well of 2 μg/ml in PBS/1% BSA) for 2 h at 37° C. After washing, streptavidin-peroxidase (Roche Diagnostics, Vienna, Austria) was added ( 1/5000 in PBS, 100 μl/well) and plates were incubated at room temperature for 2 additional hours. Subsequently, substrate was added to the washed plates (100 μl/well of a mixture of 10 ml 100 mM Tris pH 7.5 supplemented with 200 μl of 40 mg/ml DAB stock containing 50 μl of 80 mg/ml NiCl2 stock and 5 μl of 30% H2O2). The reaction was stopped after 20-30 minutes by washing the plates with tap water. Dried plates were evaluated with an ELISpot reader (BIOREADER 2000, BioSys, Karben, Germany).
Groups of 5 mice (HLA-A*0201-, HLA-DRB1*0401- and HLA-B*0702 transgenic mice, male, 8-14 weeks of age) were injected subcutaneous into the hind footpads with 100 μg of peptide +IC31 per mouse (50 μg per footpad). (PCT/EP01/12041, WO 02/32451 A1 and PCT/EP01/06433, WO 01/93905 A1; IC31 is a combination of the immunizer disclosed in WO 01/93905 and WO 02/32451). […]

“Also recorded” adds a separate entry of the source.

B1: MSTNPKPQRKTKRNTNRRPQDVKFPGGGQIVGGVYLLPRRGPRLGVRATRKTSERSQPRGRRQPIPK (peptide)
peptide: MSTNPKPQRKTKRNTNRRPQDVKFPGGGQIVGGVYLLPRRGPRLGVRATRKTSERSQPRGRRQPIPK
In the case of B1, the “specific INF-γ producing T cells / HLA-B*0702 epitope in HLA-B*0702 transgenic mice (in words)” value is listed as “confirmed to contain human HLA-B*0702 epitopes; also recorded: HLA-B*0702 epitopes with T-cell activating capacity”. For the same molecule, the “Immunogenicity, peptide-specific IFN-gamma-producing cells, B*0702” value (HLA-B*0702 transgenic mice, splenocytes) is reported as “+ (immunogenic (+, less than 100 peptide-specific cells among a million splenocytes))”. The “specific INF-γ producing T cells / HLA-B*0702 epitope in HLA-B*0702 transgenic mice (in words)” value (listed as Ipep1506) is on record as “significant interferon-gamma induction”.
